Results taken from paper PMC12141571.

settings: phosphorylation at T188

Substance	other	enzymatic_activity
Erk2: R65H+T188A vs R65H (HEK293, no EGF; TEY phosphorylation)	increases	
Erk2: R65H+T188E, R65H+T188D (recombinant; dual TEY autophosphorylation)	decreases	
Erk2: T188A (HEK293 + EGF; TEY phosphorylation)	increases	
Erk2: T188A (HEK293, no EGF; TEY phosphorylation)	increases, 2–6 fold	
Erk2: T188A (recombinant protein, in vitro kinase assay)		abolishes
Erk2: T188A (recombinant; dual TEY phosphorylation by MEK1EE in vitro)	decreases, 2.2% doubly phosphorylated (Erk2WT 12.5%)	
Erk2: T188A (recombinant; spontaneous Tyr185 autophosphorylation)	increases, 84% monophosphorylated on Tyr185	
Erk2: T188C		no change
Erk2: T188D (recombinant; dual TEY phosphorylation by MEK1EE in vitro)	decreases, 2.2% dually phosphorylated (Erk2WT 12.5%)	
Erk2: T188E, T188D (HEK293 + EGF; TEY phosphorylation)	increases	
Erk2: T188E, T188D (recombinant protein, in vitro kinase assay)		abolishes
Erk2: T188G		decreases, to about 6%
Erk2: T188N		abolishes
Erk2: T188S		increases

same assay, conditions: phosphorylation at T207

Substance	other	enzymatic_activity
Erk1: R84H+T207A vs R84H (HEK293, no EGF; TEY phosphorylation)	increases	
Erk1: T207A (HEK293 + EGF; TEY phosphorylation)	increases	
Erk1: T207A (HEK293, no EGF; TEY phosphorylation)	increases, 2–6 fold	
Erk1: T207A (recombinant protein, in vitro kinase assay)		abolishes
Erk1: T207E, T207D (HEK293 + EGF; TEY phosphorylation)	increases	
Erk1: T207E, T207D (recombinant protein, in vitro kinase assay)		abolishes
